Key:
[1] = target: T1, DDR1 (416-913aa)-EGFP (human, UniProt Q08345 416-913); experiment: cell-free droplet (phase separation) assay + turbidity; purified DDR1-C or DDR1-N (5 μM) incubated with varying concentrations of YWHAE-Cherry; 20 mM Tris-HCl pH 7.0, 75 mmol/L KCl, 1 mmol/L DTT, 4 °C 5-10 min, confocal imaging; turbidity at 600 nm with 5% PEG8000; details: both partners purified
T1 construct: human DDR1 (DDR1b), residues 416-913, containing the transmembrane and cytosolic domains; also called DDR1-C; source: E. coli Transetta (DE3), purified (Ni-NTA)

[2] = target: the molecule itself; experiment: dual-color FRAP with antibody immobilisation; EA.hy926 ECs co-expressing DDR1-EGFP and mCherry-DDR1, 5 min pre-shear; anti-mCherry polyclonal antibody immobilises the mCherry copy, lateral mobility of the EGFP copy read by FRAP

B1: YWHAE-Cherry recombinant protein (natural protein, UniProt P62258 1-255, looked up)
chain: MDDREDLVYQAKLAEQAERYDEMVESMKKVAGMDVELTVEERNLLSVAYKNVIGARRASWRIISSIEQKEENKGGEDKLKMIREYRQMVETELKLICCDILDVLDKHLIPAANTGESKVFYYKMKGDYHRYLAEFATGNDRKEAAENSLVAYKAASDIAMTELPPTHPIRLGLALNFSVFYYEILNSPDRACRLAKAAFDDAIAELDTLSEESYKDSTLIMQLLRDNLTLWTSDMQGDGEEQNKEALQDVEDENQ
notes: YWHAE (14-3-3ε), Uniprot No. P62258; also called recombinant YWHAE protein; source: bought: Dai-An Biotechnology (Wuhan); expressed by E. coli BL21 (DE3), purity >90% by SDS-PAGE; not shown: mCherry, C-terminal, kept
binding result [1]: binds

B2: WT DDR1-EGFP co-expressed with mCherry-WT DDR1 (dual-color FRAP) (receptor, human, UniProt Q08345 19-913, looked up)
chain: DADMKGHFDPAKCRYALGMQDRTIPDSDISASSSWSDSTAARHSRLESSDGDGAWCPAGSVFPKEEEYLQVDLQRLHLVALVGTQGRHAGGLGKEFSRSYRLRYSRDGRRWMGWKDRWGQEVISGNEDPEGVVLKDLGPPMVARLVRFYPRADRVMSVCLRVELYGCLWRDGLLSYTAPVGQTMYLSEAVYLNDSTYDGHTVGGLQYGGLGQLADGVVGLDDFRKSQELRVWPGYDYVGWSNHSFSSGYVEMEFEFDRLRAFQAMQVHCNNMHTLGARLPGGVECRFRRGPAMAWEGEPMRHNLGGNLGDPRARAVSVPLGGRVARFLQCRFLFAGPWLLFSEISFISDVVNNSSPALGGTFPPAPWWPPGPPPTNFSSLELEPRGQQPVAKAEGSPTAILIGCLVAIILLLLLIIALMLWRLHWRRLLSKAERRVLEEELTVHLSVPGDTILINNRPGPREPPPYQEPRPRGNPPHSAPCVPNGSALLLSNPAYRLLLATYARPPRGPGPPTPAWAKPTNTQAYSGDYMEPEKPGAPLLPPPPQNSVPHYAEADIVTLQGVTGGNTYAVPALPPGAVGDGPPRVDFPRSRLRFKEKLGEGQFGEVHLCEVDSPQDLVSLDFPLNVRKGHPLLVAVKILRPDATKNARNDFLKEVKIMSRLKDPNIIRLLGVCVQDDPLCMITDYMENGDLNQFLSAHQLEDKAAEGAPGDGQAAQGPTISYPMLLHVAAQIASGMRYLATLNFVHRDLATRNCLVGENFTIKIADFGMSRNLYAGDYYRVQGRAVLPIRWMAWECILMGKFTTASDVWAFGVTLWEVLMLCRAQPFGQLTDEQVIENAGEFFRDQGRQVYLSRPPACPQGLYELMLRCWSRESEQRPPFSQLHRFLAEDALNTV
notes: human DDR1, DDR1b isoform, from a plasmid with full-length DDR1b; Two differently tagged copies of the same protein in one cell: each copy has only one of the two fluorescent proteins; The mCherry copy is held by an anti-mCherry polyclonal antibody, the EGFP copy is the one whose mobility is read; also called DDR1 (WT)-GFP; mCherry-DDR1 (WT); source: EA.hy926 ECs, transfected, in living cells; …
FRAP recovery ratio of the EGFP copy with the mCherry copy immobilised [2]: 49.2 ± 9.6%

B3: locked DDR1-EGFP (D189C/F364C) co-expressed with mCherry-locked DDR1 (dual-color FRAP) (receptor, human, UniProt Q08345 19-913, looked up)
chain: DADMKGHFDPAKCRYALGMQDRTIPDSDISASSSWSDSTAARHSRLESSDGDGAWCPAGSVFPKEEEYLQVDLQRLHLVALVGTQGRHAGGLGKEFSRSYRLRYSRDGRRWMGWKDRWGQEVISGNEDPEGVVLKDLGPPMVARLVRFYPRADRVMSVCLRVELYGCLWRCGLLSYTAPVGQTMYLSEAVYLNDSTYDGHTVGGLQYGGLGQLADGVVGLDDFRKSQELRVWPGYDYVGWSNHSFSSGYVEMEFEFDRLRAFQAMQVHCNNMHTLGARLPGGVECRFRRGPAMAWEGEPMRHNLGGNLGDPRARAVSVPLGGRVARFLQCRFLFAGPWLLFSEISCISDVVNNSSPALGGTFPPAPWWPPGPPPTNFSSLELEPRGQQPVAKAEGSPTAILIGCLVAIILLLLLIIALMLWRLHWRRLLSKAERRVLEEELTVHLSVPGDTILINNRPGPREPPPYQEPRPRGNPPHSAPCVPNGSALLLSNPAYRLLLATYARPPRGPGPPTPAWAKPTNTQAYSGDYMEPEKPGAPLLPPPPQNSVPHYAEADIVTLQGVTGGNTYAVPALPPGAVGDGPPRVDFPRSRLRFKEKLGEGQFGEVHLCEVDSPQDLVSLDFPLNVRKGHPLLVAVKILRPDATKNARNDFLKEVKIMSRLKDPNIIRLLGVCVQDDPLCMITDYMENGDLNQFLSAHQLEDKAAEGAPGDGQAAQGPTISYPMLLHVAAQIASGMRYLATLNFVHRDLATRNCLVGENFTIKIADFGMSRNLYAGDYYRVQGRAVLPIRWMAWECILMGKFTTASDVWAFGVTLWEVLMLCRAQPFGQLTDEQVIENAGEFFRDQGRQVYLSRPPACPQGLYELMLRCWSRESEQRPPFSQLHRFLAEDALNTV
notes: human DDR1, DDR1b isoform, DS-like domain locked by two cysteines; Two differently tagged copies of the same mutant in one cell, as for m3; also called DS-like locked mutant; source: EA.hy926 ECs, transfected, in living cells; not shown: EGFP (on one copy); mCherry (on the other copy)
FRAP recovery ratio of the EGFP copy with the mCherry copy immobilised [2]: 67.6 ± 4%
